US20250084172A1

Target: mutagenized ULBP6 phage library (pool of ULBP6 mutants displayed on M13 phage)
Test: plate panning; antibody coated at 5 ug/mL, eluted phage titered against PBS-coated background wells

Row | Binder | Phage enrichment
1 | humanized 6E1 (h6E1), Fc version not stated (antibody, V domains shown) VH: EVQLVQSGAEVKKPGASVKVSCKASGYTFTNYWMHWMRQAPGQGLEWLGRIHPSDSDTNYNQKFKGRATLTVDKSISTAYMELSRLRSDDTAVYYCAIEGTGKGYFDVWGRGTLVTVSS VL: DIQMTQSPSSLSASVGDRVTITCKASQDIYSYLSWFQQKPGKSPKTLIYRANRLVDGVPSRFSGSGSGQDFTLTISSLQPEDFATYYCLHYDEFPLTFGGGTKVEIK | 220 fold
2 | humanized 7B3 (h7B3), Fc version not stated (antibody, V domains shown) VH: EVQLVESGGGLVQPGGSLRLSCAASGFTFSTYGFHWVRQAPGKGLEWVAYISSNSGTIDYADTVKGRFTISRDNAKNSLYLQMNSLRAEDTAVYYCARQGYGFDNWGQGTTVTVSS VL: DIQLTQSPSSLSASVGDRVTITCSASSRVSYMNWYQQKPGKSPKIWVYGISNLASGVPSRFSGSGSGTDFTFTISSLQPEDIATYYCQQRSSHPLTFGGGTKVEIK | 75 fold
3 | humanized 8E11 (h8E11), Fc version not stated (antibody, V domains shown) VH: EVQLVESGGGLVQPGGSLRLSCAASGFTFRTYGMHWVRQAPGKGLEWVAYISSGSGTIDYADTVKGRFTISRDNAKNSLYLQMNSLRAEDTAVYYCTRQTGAMDYWGQGTLVTVSS VL: EIVLTQSPATLSLSPGERATLSCSASSSVSYMNWYQQKPGQSPRLWIYGISNLASGVPARFSGSGSGTDFTLTISSLEPEDFAVYYCQQRSSHPLTFGGGTKVEIK | 145 fold
